In US20260049134A1 (UNIVERSITY OF FLORIDA RESEARCH FOUNDATION, published 2026):
Substitutions are numbered along the chain they refer to. In names and notes the source's numbering stands. Values belong to the binder of their own block, whether it stands above or below them.

Key:
IGSF11 = target: T1, IGSF11; experiment: ELISA on coated protein
T1 construct: also called IGSF11-Fc (R&D Systems)
T1 chain: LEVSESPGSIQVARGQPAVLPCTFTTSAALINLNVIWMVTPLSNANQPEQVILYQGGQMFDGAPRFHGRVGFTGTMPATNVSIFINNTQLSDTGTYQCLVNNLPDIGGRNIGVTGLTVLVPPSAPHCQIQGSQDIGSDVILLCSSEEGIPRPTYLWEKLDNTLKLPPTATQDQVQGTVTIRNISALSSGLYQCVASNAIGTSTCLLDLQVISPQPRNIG

HHLA2 = target: T2, HHLA2; experiment: ELISA on coated protein
T2 construct: also called HHLA2-Fc (R&D Systems); B7-H7; not shown: Fc part and any linker
T2 chain: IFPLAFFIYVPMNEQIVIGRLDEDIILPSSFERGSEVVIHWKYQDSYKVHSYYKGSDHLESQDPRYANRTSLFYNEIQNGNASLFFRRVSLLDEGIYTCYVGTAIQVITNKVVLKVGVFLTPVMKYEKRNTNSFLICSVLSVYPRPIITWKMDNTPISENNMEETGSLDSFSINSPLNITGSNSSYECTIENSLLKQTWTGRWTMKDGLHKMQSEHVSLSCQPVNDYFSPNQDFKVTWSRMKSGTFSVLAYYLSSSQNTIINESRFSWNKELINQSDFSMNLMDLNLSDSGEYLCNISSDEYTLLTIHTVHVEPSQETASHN

[1] = target: T3, PTPRG, endogenous in H929 multiple myeloma cells (human, UniProt P23470 20-1445); experiment: flow cytometry, H929 + CADM1 siRNA; None 449
T3 construct: Native protein on H929 cells (flow cytometry, siRNA knockdown) and in H929 lysates (IP/MS); also called phosphatase receptor type γ

[2] = target: T3, PTPRG, endogenous in H929 multiple …; experiment: flow cytometry, H929 + ICAM1 siRNA; None 455
[3] = target: T3, PTPRG, endogenous in H929 multiple …; experiment: flow cytometry, H929 + CADM1 siRNA; None 0.89
[4] = target: T3, PTPRG, endogenous in H929 multiple …; experiment: flow cytometry, H929 + ICAM1 siRNA; None 1.06
[5] = target: T4, CADM1, endogenous in H929 multiple myeloma cells (human, UniProt Q9BY67 45-442); experiment: flow cytometry, H929 + NT Green siRNA; None 1.35
T4 construct: Native protein on H929 cells (flow cytometry, siRNA knockdown) and in H929 lysates (IP/MS); RPMI-8226 cells were used for sorting with HW-97; also called IGSF4A
T4 sequence: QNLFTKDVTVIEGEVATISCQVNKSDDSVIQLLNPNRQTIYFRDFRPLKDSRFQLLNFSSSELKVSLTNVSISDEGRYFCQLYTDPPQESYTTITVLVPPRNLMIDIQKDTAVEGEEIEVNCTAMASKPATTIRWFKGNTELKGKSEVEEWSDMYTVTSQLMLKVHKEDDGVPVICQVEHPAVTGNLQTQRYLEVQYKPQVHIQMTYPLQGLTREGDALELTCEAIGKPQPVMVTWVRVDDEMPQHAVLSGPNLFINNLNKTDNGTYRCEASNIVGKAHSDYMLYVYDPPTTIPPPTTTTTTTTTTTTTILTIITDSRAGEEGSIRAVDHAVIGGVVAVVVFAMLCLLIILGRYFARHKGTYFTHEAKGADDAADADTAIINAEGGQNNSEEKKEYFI

[6] = target: T4, CADM1, endogenous in H929 multiple …; experiment: flow cytometry, H929 + vehicle; None 513

T3 sequence (P23470 20-1445 limits assumed): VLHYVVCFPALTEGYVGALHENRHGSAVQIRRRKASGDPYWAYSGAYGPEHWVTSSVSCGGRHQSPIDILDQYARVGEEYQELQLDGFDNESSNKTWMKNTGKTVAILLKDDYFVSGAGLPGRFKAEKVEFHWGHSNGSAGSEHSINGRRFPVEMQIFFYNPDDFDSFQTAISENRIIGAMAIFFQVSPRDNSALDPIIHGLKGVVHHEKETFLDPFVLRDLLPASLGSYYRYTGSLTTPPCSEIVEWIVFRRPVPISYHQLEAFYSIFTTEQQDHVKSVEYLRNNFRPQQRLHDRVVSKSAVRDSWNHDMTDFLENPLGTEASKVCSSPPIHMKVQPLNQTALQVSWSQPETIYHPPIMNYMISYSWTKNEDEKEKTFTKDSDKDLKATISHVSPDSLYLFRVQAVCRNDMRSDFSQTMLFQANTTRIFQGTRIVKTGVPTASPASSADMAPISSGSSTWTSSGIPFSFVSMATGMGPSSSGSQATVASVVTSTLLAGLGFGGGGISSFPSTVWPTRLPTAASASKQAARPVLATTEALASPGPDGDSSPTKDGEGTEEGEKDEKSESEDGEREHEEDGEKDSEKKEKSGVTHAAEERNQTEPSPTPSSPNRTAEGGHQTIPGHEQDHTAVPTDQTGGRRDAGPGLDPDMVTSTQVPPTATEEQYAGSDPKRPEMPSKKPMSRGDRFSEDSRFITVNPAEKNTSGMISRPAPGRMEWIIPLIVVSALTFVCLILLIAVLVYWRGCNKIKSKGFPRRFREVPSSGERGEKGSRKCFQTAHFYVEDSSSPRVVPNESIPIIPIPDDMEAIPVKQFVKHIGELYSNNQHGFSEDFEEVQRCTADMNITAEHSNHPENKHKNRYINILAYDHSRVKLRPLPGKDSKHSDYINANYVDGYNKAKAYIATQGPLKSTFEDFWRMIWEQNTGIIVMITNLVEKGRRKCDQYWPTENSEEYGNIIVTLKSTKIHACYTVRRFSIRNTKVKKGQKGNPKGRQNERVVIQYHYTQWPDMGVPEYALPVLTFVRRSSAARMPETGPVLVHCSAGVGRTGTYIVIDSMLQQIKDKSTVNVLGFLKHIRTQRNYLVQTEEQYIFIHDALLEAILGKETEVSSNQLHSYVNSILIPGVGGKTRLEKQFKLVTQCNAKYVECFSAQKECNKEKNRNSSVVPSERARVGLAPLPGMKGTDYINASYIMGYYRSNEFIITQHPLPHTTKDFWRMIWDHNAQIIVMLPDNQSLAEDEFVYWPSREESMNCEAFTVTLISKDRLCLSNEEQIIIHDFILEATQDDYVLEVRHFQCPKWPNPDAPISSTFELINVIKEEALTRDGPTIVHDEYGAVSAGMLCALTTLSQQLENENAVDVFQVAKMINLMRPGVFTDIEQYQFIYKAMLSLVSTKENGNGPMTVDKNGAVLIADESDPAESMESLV

B1: HW-8 chimeric rabbit-human IgG1 LA/LA/PG (antibody, V domains shown)
VH: QSLEESGGRLVTPGTPLTLTCTVSGFSLSSYAMSWVRQAPGKGLEWIGAISTGGSTTYASWAKGRFTISKTSSTTVDLKMTSLTTEDTATYFCVRHFRLWGPGTLVTISS
VL: QVLTQTPSSVSAAVGGTVTIKCQASQSIGSALAWFQQKPGQRPKLLIYRASNLASGVPSRFKGSGSGTEFALTISGVQREDAATYYCLGGAAAVWAFGAGTNVEIKR
notes: Fc-silenced (L234A/L235A/P329G) IgG1, kappa; Alexa Fluor 647-labeled in single-step flow cytometry; Cluster C-45
binding result (IGSF11): no binding (tested: 150 ng IgG1 per well) | binding result (HHLA2): no binding (tested: 150 ng IgG1 per well)

B2: HW-42 chimeric rabbit-human IgG1 LA/LA/PG (antibody, V domains shown)
VH: QSVKESEGGLFKPADTLTLTCTVSGFSLSSNEISWVRQAPGEGLEYIGIIDTGGRAYYAVWARSRSTITRNTNLNTVTLKMTSLTAADTATYFCARGGVDTEWYAFSSWGPGTLVTVPS
VL: SFVLTQPASVQVNLGQTVSLTCTADTLSRRYASWYQQKPGQAPVLLIFRDTSRPSGVPDRFSGSSSGDTATLTISGAQAGDEADYYCATSDGSGSNYQYVFGGGTQLTVTG
notes: Fc-silenced (L234A/L235A/P329G) IgG1, lambda; Alexa Fluor 647-labeled in single-step flow cytometry; Cluster C-1
mAb binding (MFI) [1]: 9210 | mAb binding (MFI) [2]: 12100 | Cells stained (%) [3]: 97.3% | Cells stained (%) [4]: 96.9% | binding result (IGSF11): no binding (tested: 150 ng IgG1 per well) | binding result (HHLA2): no binding (tested: 150 ng IgG1 per well)

B3: HW-70 chimeric rabbit-human IgG1 LA/LA/PG (antibody, V domains shown)
VH: QSLEESGGRLVTPGTPLTLTCTVSGFSLSSNAMSWVRQAPGKGLEWIGTIDGYGYTYYASWAKGRFTVSKTSTTVDLKITSPTTEDTATYFCAREIYLGSNFWGPGTLVTISS
VL: B2 VL with F48Y, D68N, S90A, N96S, Y99F
notes: as for B2
mAb binding (MFI) [1]: 13800 | mAb binding (MFI) [2]: 17900 | Cells stained (%) [3]: 98.7% | Cells stained (%) [4]: 97.4% | binding result (IGSF11): no binding (tested: 150 ng IgG1 per well) | binding result (HHLA2): no binding (tested: 150 ng IgG1 per well)

B6: HW-1 chimeric rabbit-human IgG1 LA/LA/PG (antibody, V domains shown)
VH: QSLEESGGGLFKPTDTLTLTCTASGFSLGSSYAISWVRQAPGKELEWIGTIDSGRAYYARWAKSRSTITRNTNENTVTLKMTSLTAADTATYFCARDLIPTYSQDIWGPGTLVTISS
VL: B2 VL with F48Y, D68N, S95N, N96S, G111S
notes: Fc-silenced (L234A/L235A/P329G) IgG1, lambda; Alexa Fluor 647-labeled in single-step flow cytometry; Prototype of cluster C-1
mAb binding (MFI) [1]: 17500 | mAb binding (MFI) [2]: 24500 | Cells stained (%) [3]: 99.3% | Cells stained (%) [4]: 98.2% | binding result (IGSF11): no binding (tested: 150 ng IgG1 per well) | binding result (HHLA2): no binding (tested: 150 ng IgG1 per well)

B7: HW-25 chimeric rabbit-human IgG1 LA/LA/PG (antibody, V domains shown)
VH: QSLEESGGRLVTPGTPLTLTCTVSGFSLSSYAMGWVRQAPGKGLEWIGIIDSRGSTYYATWAKGRFTISKTSTTVDLKITSPTTEDTATYFCAREDSYYYDSFNLWGPGTLVTVSS
VL: B2 VL with F48Y, D68N, N96S, Y99C
notes: as for B2
mAb binding (MFI) [1]: 8720 | mAb binding (MFI) [2]: 11400 | Cells stained (%) [3]: 97.7% | Cells stained (%) [4]: 97.2% | binding result (IGSF11): no binding (tested: 150 ng IgG1 per well) | binding result (HHLA2): no binding (tested: 150 ng IgG1 per well)

B8: HW-113 chimeric rabbit-human IgG1 LA/LA/PG (antibody, V domains shown)
VH: QKQLVESGGGLVQPGGSLTLTCTVSGFSLNKYYMGWFRQAPGKGLEWIGVISRSGDTYYSSWAKGRFTISKASTTVDLRITSPTTEDTATYFCARDASSPGFHGDRLDLWGQGTLVTVSS
VL: B2 VL with R30S, F48Y, D68N, S93I, Q98L, Y99W
notes: Fc-silenced (L234A/L235A/P329G) IgG1, lambda; Alexa Fluor 647-labeled in single-step flow cytometry
binding result (IGSF11): no binding (tested: 150 ng IgG1 per well) | binding result (HHLA2): no binding (tested: 150 ng IgG1 per well)

B9: HW-17 chimeric rabbit-human IgG1 LA/LA/PG (antibody, V domains shown)
VH: QSLGESRGRLVTPDETLTLTCTVSGIDLSSNAMSWVRQAPGEGLEWIGTINTGGRAYYASWAKGRFTISRTSTTVDLKMTSLTTEDTATYFCARERYSDGRAYDIWGPGTLVTISS
VL: B2 VL with F48Y, R49T, T51S, S52N, V57I, D68N, S90D, N96I
notes: as for B2
mAb binding (MFI) [1]: 21000 | mAb binding (MFI) [2]: 28000 | Cells stained (%) [3]: 99.3% | Cells stained (%) [4]: 98.4% | binding result (IGSF11): no binding (tested: 150 ng IgG1 per well) | binding result (HHLA2): no binding (tested: 150 ng IgG1 per well)

B11: TH9-0022 (antibody, human IgG1, kappa, L234A L235A, V domains shown)
VH: QSLEESGGRLVTPGTPLTLTCTVSGFSLSSYAMNWVRQAPGKGLEWIGIINSYGSTYYASWAKGRFTISKTSTTVDLKITSPTTEDTATYFCARVTYDSYGYGYAPYGMDLWGPGTLVTVSS
VL: LVMTQTPSSTSNAVGGTVTIKCQASQSIGNVLAWYQQKPGQPPKLLIYAASTLASGVPSRVGGSRSGTEYTLTISGVQREDAATYYCLGSDSDSDIAFGGGTELEILR
notes: also called TH9-022; negative control IgG1
binding result (IGSF11): no binding (tested: 150 ng IgG1 per well) | binding result (HHLA2): no binding (tested: 150 ng IgG1 per well)

Now from value to binder, other results behind:

Cells stained (%) [5]: 94.3% | mAb binding (MFI) [6]: 5940
B4: HW-101 chimeric rabbit-human IgG1 LA/LA/PG (antibody, V domains shown)
VH: QEQLVESGGRLVTPGTPLTLTCKASGFSLGKYDMSWVRQAPGKGLEWIGTIYAGSGSTWYASWAKGRFTISKTSTTVDLKMTSLTTEDTATYFCARDFLGVNSIWGPGTLVTISS
VL: B2 VL with R30S, G40D, F48H, S65N, D68N, Y97F, Q98H, Y99F
notes: Fc-silenced (L234A/L235A/P329G) IgG1, lambda; Alexa Fluor 647-labeled in single-step flow cytometry; Cluster C-97
binding result (IGSF11): no binding (tested: 150 ng IgG1 per well) | binding result (HHLA2): no binding (tested: 150 ng IgG1 per well)

Cells stained (%) [5]: 98.1% | mAb binding (MFI) [6]: 9510
B5: HW-97 chimeric rabbit-human IgG1 LA/LA/PG (antibody, V domains shown)
VH: QKQLVESGGRLVTPGTPLTLTCTVTGIDLSSHGMSWVRQAPGKGLEWIGVIYPSGSTWYASWARGRFTISKTSTTVDLKMTSLTTEDTATHFCARGDVGGADNNIWGPGTLVTVSS
VL: B2 VL with N13D, D25E, R30S, F48Y, D68N, N96S
notes: Fc-silenced (L234A/L235A/P329G) IgG1, lambda; Alexa Fluor 647-labeled in single-step flow cytometry; Prototype of cluster C-97
binding result (IGSF11): no binding (tested: 150 ng IgG1 per well) | binding result (HHLA2): no binding (tested: 150 ng IgG1 per well)

Cells stained (%) [5]: 1.86% | mAb binding (MFI) [6]: 595
B10: TH9-0022 (antibody, human IgG1, kappa, L234A L235A, V domains shown)
VH: B11 VH
VL: B11 VL
notes: also called TH9-022; negative control
